Measurements as given in patent US20240084003A1 (SIMCERE ZAIMING PHARMACEUTICAL, published 2024).

What was measured:
[1] = molecular target: T1, human CD22, full length, on CHO-K1-human CD22 2C4 cells (human, UniProt P20273 20-847); test: FACS, CHO-K1-human CD22 2C4 cells
T1 construct: Full-length human CD22 (NCBI NP_001762.2) stably transfected into CHO-K1
T1 sequence: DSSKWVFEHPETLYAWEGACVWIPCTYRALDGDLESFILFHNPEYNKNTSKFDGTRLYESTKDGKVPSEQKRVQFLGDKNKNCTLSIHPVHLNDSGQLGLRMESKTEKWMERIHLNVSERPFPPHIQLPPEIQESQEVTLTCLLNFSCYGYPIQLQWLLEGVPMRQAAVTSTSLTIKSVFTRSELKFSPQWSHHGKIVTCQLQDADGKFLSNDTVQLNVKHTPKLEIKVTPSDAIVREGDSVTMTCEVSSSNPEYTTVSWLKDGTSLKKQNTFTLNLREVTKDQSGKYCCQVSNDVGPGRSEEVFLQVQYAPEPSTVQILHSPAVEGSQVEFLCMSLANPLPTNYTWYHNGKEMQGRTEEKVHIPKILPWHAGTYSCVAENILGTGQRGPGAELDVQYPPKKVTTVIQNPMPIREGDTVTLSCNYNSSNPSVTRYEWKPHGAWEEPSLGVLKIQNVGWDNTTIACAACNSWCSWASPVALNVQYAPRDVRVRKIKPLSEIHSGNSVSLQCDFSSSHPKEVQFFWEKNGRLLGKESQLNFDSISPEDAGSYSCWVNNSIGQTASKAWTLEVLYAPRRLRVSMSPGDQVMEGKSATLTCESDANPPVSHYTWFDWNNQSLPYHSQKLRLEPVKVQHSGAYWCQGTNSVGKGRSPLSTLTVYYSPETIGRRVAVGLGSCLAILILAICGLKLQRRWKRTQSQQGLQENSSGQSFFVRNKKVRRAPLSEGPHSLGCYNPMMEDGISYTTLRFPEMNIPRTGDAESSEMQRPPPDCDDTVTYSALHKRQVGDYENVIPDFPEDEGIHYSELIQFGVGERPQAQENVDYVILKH
From the text: (§1) The required cells were scale-up cultured in a T-75 cell culture flask to the logarithmic growth phase. For the adherent cell CHO-K1, the medium was aspirated, the cells were washed 2 times with PBS buffer, and then digested with trypsin. After the digestion was terminated, the cells were washed 2 times with PBS buffer. For suspension cell Raji, the medium supernatant was directly centrifuged and discarded, and the cell pellet was washed 2 times with PBS. After counting the cells in the previous step, the cell pellet was resuspended with [PBS+2% (w/w) BSA] blocking solution to 2×10⁶ cells/ml, and added to a 96-well FACS reaction plate at 50 μl/well, and then the chimeric antibody test sample was added at 50 μl/well, and incubated on ice for 2 hours. The mixture was centrifuged and washed 3 times with PBS buffer, Alexa Flour 488-labeled secondary antibody (purchased from Invitrogen, catalog number: A-11013) was added at 50 μl/well, and incubated on ice for 1 hour. The obtained mixture was centrifuged and washed 5 times with PBS, and FACS (FACS Canto™, purchased from BD Company) was used for detection and result analysis. Data analysis was performed by software (CellQuest) to obtain the mean fluorescence density (MFI)of the cells. And then software (GraphPad Prism8) was used for analysis, data fitting, and EC50 value calculation. […] The same method was used to detect the binding of the chimeric antibodies to endogenous CD22-negative cell MoLT4 cells (purchased from ATCC, CRL-1582) and CHO-K1 cells.

[2] = molecular target: T2, murine CD22 protein (ACROBiosystems, SI2-M52Ha) (murine, UniProt P35329 22-708); test: ELISA, coated murine CD22, 100 nM Ab
T2 construct: extracellular domain; also called murine CD22-ECD; murine CD22-ECD-His
T2 sequence (looked up): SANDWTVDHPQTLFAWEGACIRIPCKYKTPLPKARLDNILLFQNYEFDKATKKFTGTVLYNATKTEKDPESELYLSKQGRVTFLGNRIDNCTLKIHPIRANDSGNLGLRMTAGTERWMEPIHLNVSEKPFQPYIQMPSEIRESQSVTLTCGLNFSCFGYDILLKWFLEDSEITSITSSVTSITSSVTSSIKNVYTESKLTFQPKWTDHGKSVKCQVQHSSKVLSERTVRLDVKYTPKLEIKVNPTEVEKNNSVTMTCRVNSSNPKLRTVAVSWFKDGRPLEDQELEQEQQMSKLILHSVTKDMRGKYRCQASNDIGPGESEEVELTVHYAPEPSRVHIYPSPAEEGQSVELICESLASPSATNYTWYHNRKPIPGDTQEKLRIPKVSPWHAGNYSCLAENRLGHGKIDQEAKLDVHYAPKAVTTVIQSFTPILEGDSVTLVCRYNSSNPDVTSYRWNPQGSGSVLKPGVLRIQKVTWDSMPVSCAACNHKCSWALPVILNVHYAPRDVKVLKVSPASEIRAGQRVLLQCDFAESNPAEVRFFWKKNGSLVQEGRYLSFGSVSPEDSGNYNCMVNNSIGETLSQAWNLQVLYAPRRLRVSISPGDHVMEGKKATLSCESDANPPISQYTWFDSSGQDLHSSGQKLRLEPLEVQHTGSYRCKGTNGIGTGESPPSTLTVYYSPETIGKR
Procedure: (§2) In order to detect the binding activity of CD22 human-murine chimeric antibodies to CD22 protein, the purified human CD22-ECD-His protein obtained in Example 2 was diluted with PBS to a final concentration of 2 μg/mL, and then added to 96-well ELISA plate at 100 μl/well. The plate was sealed with plastic film and incubated overnight at 4° C., the plate was washed 2 times with PBS the next day, and then a blocking solution [PBS+2% (w/w) BSA] was added for blocking at room temperature for 2 hours. […] After incubation at 37° C. for 2 hours, the plate was washed 3 times with PBS. HRP (horseradish peroxidase)-labeled secondary antibody (purchased from Sigma, catalog number: A0170) was added, and incubated at 37° C. for 2 hours, and the plate was washed 5 times with PBS. TMB substrate was added at 50 μl/well, and incubated at room temperature for 30 minutes, then a stop solution (1.0 N HCl) was added at 50 μl/well.
(§3) In order to detect the species cross-binding activity of the chimeric antibodies, an ELISA plate was coated with commercial murine CD22 protein (ACROBiosystems, catalog number: SI2-M52Ha) and monkey CD22 protein (ACROBiosystems, catalog number: SI2-R52Ha), respectively, and the ELISA detection was performed according to the method in Example 5.1.

[3] = molecular target: T2, murine CD22 protein (ACROBiosystems, …); test: ELISA, coated murine CD22, 0.1 nM Ab
Procedure: as §2, §3

[4] = molecular target: T2, murine CD22 protein (ACROBiosystems, …); test: ELISA, coated murine CD22, 0.00001 nM Ab
Procedure: as §2, §3

[5] = molecular target: T2, murine CD22 protein (ACROBiosystems, …); test: ELISA, coated murine CD22, 0.01 nM Ab
Procedure: as §2, §3

[6] = molecular target: T2, murine CD22 protein (ACROBiosystems, …); test: ELISA, coated murine CD22, 0.0001 nM Ab
Procedure: as §2, §3

[7] = molecular target: T2, murine CD22 protein (ACROBiosystems, …); test: ELISA, coated murine CD22, 0.001 nM Ab
Procedure: as §2, §3

[8] = molecular target: T2, murine CD22 protein (ACROBiosystems, …); test: ELISA, coated murine CD22, 10 nM Ab
Procedure: as §2, §3

[9] = molecular target: T3, human CD22, endogenous on Raji cells (human, UniProt P20273 20-847); test: FACS, Raji cells
T3 construct: whole, on cells; Endogenous protein of the Raji cell line
T3 sequence (looked up): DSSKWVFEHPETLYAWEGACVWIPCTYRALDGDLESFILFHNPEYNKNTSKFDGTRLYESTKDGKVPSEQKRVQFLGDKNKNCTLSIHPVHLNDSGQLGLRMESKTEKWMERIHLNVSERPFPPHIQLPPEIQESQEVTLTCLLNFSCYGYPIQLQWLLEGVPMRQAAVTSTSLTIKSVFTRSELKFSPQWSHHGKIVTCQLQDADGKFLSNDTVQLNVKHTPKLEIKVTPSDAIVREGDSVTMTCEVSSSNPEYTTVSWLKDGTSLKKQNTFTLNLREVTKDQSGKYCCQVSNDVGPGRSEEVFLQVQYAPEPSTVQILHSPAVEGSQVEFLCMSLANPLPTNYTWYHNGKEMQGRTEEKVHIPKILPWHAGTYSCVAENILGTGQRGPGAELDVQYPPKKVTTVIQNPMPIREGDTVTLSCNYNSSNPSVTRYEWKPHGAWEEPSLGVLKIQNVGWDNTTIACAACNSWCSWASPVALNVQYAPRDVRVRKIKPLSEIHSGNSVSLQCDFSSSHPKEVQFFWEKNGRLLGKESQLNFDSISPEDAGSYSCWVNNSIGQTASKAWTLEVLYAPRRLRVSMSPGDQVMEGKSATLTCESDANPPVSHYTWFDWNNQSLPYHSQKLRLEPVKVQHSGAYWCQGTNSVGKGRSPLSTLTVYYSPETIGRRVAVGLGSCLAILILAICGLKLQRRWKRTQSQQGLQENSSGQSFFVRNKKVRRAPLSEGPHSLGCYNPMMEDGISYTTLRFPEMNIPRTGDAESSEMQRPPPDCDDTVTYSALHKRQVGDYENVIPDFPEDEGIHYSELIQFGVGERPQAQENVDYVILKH
From the text: as §1

B1: F1.224.1 human-murine chimeric antibody (antibody, human IgG1, kappa, V domains shown)
VH: EVLLHQSGPELVKPGASVKISCKASGYTFTDFNMDWVRQRHGQSLEWIGDVNPNNGGTIYNQKFKGKATLTVDKSSSTVYMDLRSLTSDDTAVYYCVRLGTSDYGEAWFISWGQGTVVTVSA
VL: DIVLTQSPASLAVSLGQRATISCRASQSVSTPRYSFMHWYQQKPGQPPKLLIKYASNLESGFPARFTGSGSGTDFTLNIHPVEEEDTAAYYCQQSWAIPWTFGGGTKLEIKR
notes: Chimeric, human IgG1 / kappa; VL tied by name
**Q.** With B1 as the binder, how does the EC50 [1] read?
**A.** 0.99 nM

**Q.** And the “Maximum mean fluorescence intensity” value [1]?
**A.** 30400 MFI

**Q.** And the OD450 [2]?
**A.** 0.07 OD450

**Q.** What about the OD450 [3] of the same binder?
**A.** 0.05 OD450

**Q.** And the OD450 [4]?
**A.** 0.06 OD450

**Q.** What about the OD450 [5] of the same binder?
**A.** 0.06 OD450

**Q.** And the OD450 [6]?
**A.** 0.05 OD450

**Q.** And the OD450 [7]?
**A.** 0.05 OD450

**Q.** And the OD450 [8]?
**A.** 0.1 OD450

**Q.** What about the EC50 [9] of the same binder?
**A.** 0.65 nM

**Q.** What about the “Maximum mean fluorescence intensity” value [9] of the same binder?
**A.** 23600 MFI

B2: F1.7.6 human-murine chimeric antibody (antibody, human IgG1, kappa, V domains shown)
VH: EIQLQQSGPELVKPGTSVKVSCKASGYDFTRYNMYWVKQSHGKSLEWIGYIDPYNGDTRYNQKFKGKATLTVDKSSSTAYMHLNSLTSEDSAVYYCEAIYYDMEGYALDYWGQGTSVTVSS
VL: DIVMSQSPSSLAVSVGEKVTMSCKSSQSLLYSNNQKNYLAWYQQKPGQSPKKLIYWASTRESGVPDRLTGSGSGTDFTLTISSVTAEDLAVYYCQQFYSYPWTFGGGTKLEIKR
notes: as for B1
**Q.** Which results are given for B2?
**A.** EC50 [1]: 0.63 nM; Maximum mean fluorescence intensity [1]: 29700 MFI; OD450 [2]: 0.07 OD450; OD450 [3]: 0.06 OD450; OD450 [4]: 0.06 OD450; OD450 [5]: 0.06 OD450; OD450 [6]: 0.06 OD450; OD450 [7]: 0.06 OD450; OD450 [8]: 0.06 OD450; EC50 [9]: 0.23 nM; Maximum mean fluorescence intensity [9]: 25900 MFI

B3: F1.267.9 human-murine chimeric antibody (antibody, human IgG1, kappa, V domains shown)
VH: EVQLQQSGPVLVKPGASVKMSCKASGYTFTDFYMNWAKQSHGKSLEWVGVINPYNGGINYNQKFKGKATLTVDKSSSTAYMEFNSLTSEDSAVYYCARRMEYHAMDYWGQGTSVTVSS
VL: DIVLTQSPASLAVSLGQRATISCRASESVDNYGFDFIHWYQQKPGQPPKLLIYRASNLESGIPARFSGSGSRPDFTLTINPVETDDVATYYCQQSIKDPWTFGGGTKLEIKR
notes: as for B1
**Q.** What does the source list for B3?
**A.** EC50 [1]: 2.08 nM; Maximum mean fluorescence intensity [1]: 31200 MFI; OD450 [2]: 0.07 OD450; OD450 [3]: 0.06 OD450; OD450 [4]: 0.07 OD450; OD450 [5]: 0.06 OD450; OD450 [6]: 0.07 OD450; OD450 [7]: 0.07 OD450; OD450 [8]: 0.08 OD450; EC50 [9]: 1.66 nM; Maximum mean fluorescence intensity [9]: 26700 MFI
